5 molecules from article PMC8960284 (Cell Reports Methods, 2022) can be followed below.

Holding throughout (assay): FRET or BRET
(Bioluminescence resonance energy transfer reports proximity on the nanometre scale.)

Data set [1] addresses mutant Huntingtin exon1 (mHttex1) with a polyglutamine stretch of Q71, fused to mVenus-mCherry (Q71-VC).
The target of data set [2] is mutant Huntingtin exon1 with 39 glutamines, fused to mVenus-mCherry (Q39-VC).
In data set [3] the target is mutant Huntingtin exon1 with 54 glutamines, fused to mVenus-mCherry (Q54-VC).
Data set [4] has as its target wild-type FUS tagged with mVenus-mCherry at the C terminus (FUS-VC) (UniProt P35637).
The data set “FRET or BRET” concerns the molecule itself.

Turning to “mutant Huntingtin exon1 (mHttex1) with a polyglutamine stretch of Q71, fused to mVenus-mCherry (Q71-VC) (domain or fragment)”, in data set [1], the FRET/donor ratio in foci lay in the range of 1.3 to 1.4 and the FRET/donor ratio of the final foci turned out to be 1.48.

Consider “mutant Huntingtin exon1 with 39 glutamines, fused to mVenus-mCherry (Q39-VC) (domain or fragment)”, for which the FRET/donor ratio of the final foci in data set [2] was determined as 1.6.

Regarding “mutant Huntingtin exon1 with 54 glutamines, fused to mVenus-mCherry (Q54-VC) (domain or fragment)”, the FRET/donor ratio of the final foci in data set [3] worked out at 1.53.

“wild-type FUS tagged with mVenus-mCherry at the C terminus (FUS-VC) (from UniProt P35637 1-526) (natural protein)”: the increase of FRET/donor ratio in foci over the dispersed state in data set [4] is 0.06.

B1: FUS R521C tagged with mVenus-mCherry at the N terminus (VC-FUS_(R521C)) (natural protein)
chain: MASNDYTQQATQSYGAYPTQPGQGYSQQSSQPYGQQSYSGYSQSTDTSGYGQSSYSSYGQSQNTGYGTQSTPQGYGSTGGYGSSQSSQSSYGQQSSYPGYGQQPAPSSTSGSYGSSSQSSSYGQPQSGSYSQQPSYGGQQQSYGQQQSYNPPQGYGQQNQYNSSSGGGGGGGGGGNYGQDQSSMSSGGGSGGGYGNQDQSGGGGSGGYGQQDRGGRGRGGSGGGGGGGGGGYNRSSGGYEPRGRGGGRGGRGGMGGSDRGGFNKFGGPRDQGSRHDSEQDNSDNNTIFVQGLGENVTIESVADYFKQIGIIKTNKKTGQPMINLYTDRETGKLKGEATVSFDDPPSAKAAIDWFDGKEFSGNPIKVSFATRRADFNRGGGNGRGGRGRGGPMGRGGYGGGGSGGGGRGGFPSGGGGGGGQQRAGDWKCPNPTCENMNFSWRNECNQCKAPKPDGPGGGPGGSHMGGNYGDDRRGGRGGYDRGGYRGRGGDRGGFRGGRGGGDRGGFGPGKMDSRGEHRQDCRERPY
On to B1, for which the “increase of FRET/donor ratio in foci over the dispersed state” value in the data set “FRET or BRET” stood at 0.15.
